From US20260231954A1, “PESTICIDAL ENZYMES FOR USE ON NEMATODES, INSECTS, AND MOLLUSKS” (priority 2023, published 2026)

How the values were obtained:
Assay type in all cases: in vivo
[1] = tested on: corn; experiment: Field trial: PytH Esterase corn seed treatment, yield; conditions: 0.5 fl oz/unit on hybrid corn seed; 10 sites
Excerpt: 0.5 fl oz/unit of PythH Esterase from recombinant Bacillus subtilis fermentation (SEQ ID NO:255) was coated onto Hybrid corn seeds treated with Fludioxinil fungicide, ipconazole fungicide, peridium 1006 polymer, and Sensient Red (colorant). A control treatment without esterase enzyme was also created. The seed treated with esterase and control seed was planted in replicated trials distributed across 10 replicated plots with 4 replicates of 100 ft2 each at each site.

[2] = tested on: corn; experiment: Greenhouse trial: Rhizopus oryzae Esterase corn seed treatment, plant height; conditions: 0.5 fl oz/unit seed treatment, 6049 V2 hybrid corn, plant height day 10, water control = 100%
Protocol: Rhizopus oryzae Esterase (carboxylesterase, SEQ ID NO:253) was coated onto 6049 V2 hybrid corn seeds. A water only control treatment without esterase enzyme was also created. The seed treated with esterase and control seed was planted in replicated greenhouse trials on promix soil with a fluctuating day/night temperature of 78° F./75° F., and 13 hours of light daily. Plant heights were measured on day 10 for each plant emerged from the soil.

[3] = tested on: Fall armyworm (Spodoptera frugiperda); experiment: Diet-surface overlay (DSO) bioassay on Fall armyworm; conditions: number of individuals, n = 32, 7 days
Protocol: Diet-surface overlay bioassays are conducted with artificial diet mixes without antibiotics in 1.5 cm^2 cell bioassay trays(s). Artificial diets are commercially available from Southland Products Inc. Diets were prepared by dispersing 0.5 mL of molten diet to each 1.5 cm^2 cell. After solidification, 0.1 mL enzyme treatments were dispersed on top of diet in each cell and the tray was gently rocked in an orbital shaker to spread the liquid uniformly over the diet surface. Trays were placed under clean airflow until the surface of each cell was uniformly dried. One or two 16-cell sections were used per treatment (the number in larvae treated was 16 or 32).
One healthy first instar larva was placed into each treatment cell, each 16-cell section was covered with a re-sealable lid and incubated at 27° C. and light-dark period of 16:8 hrs. After 7 days, and according to the species, the number of individuals in the following developmental categories was recorded.
Negative/untreated controls were treated with filtered water and positive controls were treated with lethal doses of Bacillus thuringiensis subsp. Kurstaki (Btk) spores at 1000 ppm.

[4] = tested on: Garden snails (Cornu aspersum); experiment: Antifeedant and molluscicide bioassay on garden snails (diet consumption, survival, weight gain)
Protocol: Two-week old garden snails (Cornu aspersum) and full-size black gloss snails (Zonitoides nitidus) were maintained in a semi-darkened tank at 68-70° F. at high humidity, provided with a wet sponge in a petri dish. Snails were transferred to fresh tank every 2-3 days, and they were feed ad libitum with cucumber slices supplemented with calcium carbonate tablets. Individuals were reared in the laboratory for at least a week to fully acclimate to laboratory conditions prior to testing. The individuals ranged between 3 weeks to 2 months old at the time of bioassay.
Filter-sterilized recombinant enzymes including proteases and lipases were prepared as indicated in Example 25. Corresponding controls (e.g., buffer, fermentation of non-recombinant strain, water) were be prepared accordingly. Enzymes were dried by mixing them with Polyvinylpyrrolidone K30 (Thermo Sci Chem, Cat #227545000) at a ratio of 60 mg PVP per mL of enzymes, dispersed on a petri dish and allowed to dry in a bio-safety hood for 24-48 hours.
The treatments were prepared by mixing 0.4 g of dry enzyme and 1 gram of artificial diet mix. The artificial diet mix consisted of flour supplemented with 30 mg sucrose per gram of flour. […]
12 snails were randomly assigned to each treatment, labeled with permanent marker on the top of the shell for identification, and their weight (mg) was recorded before treatment. […] At the time of treatment replacement, treatment consumption, weight, and mortality were recorded.
Acid protease, alkaline protease, aminopeptidase, neutral protease, and keratinase, were prepared as indicated above and their antifeedant and molluscicidal effects were tested. […] The units (U) of enzyme activity was determined as the amount of enzyme required to breakdown 1 μM of substrate per minute. […]
Lipases from Burkholderia cepacia, Pseudomonas fluorescens, porcine pancreas, type II (PPII) were prepared as described above and their antifeedant and molluscicidal effects were tested. […] The units (U) of enzyme activity was determined as the amount of enzyme required to breakdown 1 μM of substrate per minute. […]

[5] = tested on: soybean; experiment: Field trial: Geobacillus stearothermophilus esterase soybean seed treatment, yield; conditions: 0.5 fl oz/unit on soybean seed; 6 sites
Excerpt: 0.5 fl oz/unit of Esterase (carboxylesterase) from Geobacillus/Bacillus stearothermophilus (SEQ ID NO:252) was coated onto soybean seeds treated with Evergol Energy (prothioconazole, metalaxyl, and penflufen fungicides) at 1 fl oz/cwt, Alias 4F (imidacloprid, insecticide) at 1.25 fl oz/unit, Sensient Red (colorant) at 0.5 fl oz/cwt, and Seedwork 4037L polymer at 1.5 fl oz/cwt. A control treatment without esterase enzyme was also created. The seed treated with esterase and control seed was planted in replicated trials distributed across 6 replicated plots with 4 replicates of 60 ft2 each at each site.

[6] = tested on: soybean; experiment: Field trial: Feruloyl Esterase soybean seed treatment, yield; conditions: 1 fl oz/unit on soybean seed; 5 sites
Excerpt: 1 fl oz/unit of Feruloyl Esterase (SEQ ID NO:91) was coated onto soybean seeds treated with Fludioxinil fungicide, metalaxyl fungicide, thiamethoxam […], Seedwork 1037L polymer, and Sensient Red (colorant). A control treatment without esterase enzyme was also created. The seed treated with esterase and control seed was planted in replicated trials distributed across 5 replicated plots with 4 replicates of 30 ft2 each at each site.

B1: PytH esterase (SEQ ID NO:255): Sphingobium wenxiniae (PytH) Esterase from recombinant Bacillus subtilis fermentation (protein, listed as Sphingobium wenxiniae)
chain: MTVTDIILIHGALNRGACYDAVVPLLEARGYRVHAPDLTGHTPGDGGHLSVVDMEHYTRPVADILARAEGQSILLGHSLGGASISWLAQHHPDKVAGLIYLTAVLTAPGITPETFVLPGEPNRGTPHALDLIQPVDEGRGLQADFSRLERLREVFMGDYPGEGMPPAEQFIQTQSTVPFGTPNPMEGRALEIPRLYIEALDDVVIPIAVQRQMQKEFPGPVAVVSLPASHAPYYSMPERLAEAIADFADAPAEYRQTATKAGPDRPAGADGGRADRADLP
For B1, the “yield vs base seed treatment package (in words)” value [1] was “increased the yield”.

B2: Esterase from Rhizopus oryzae: Rhizopus oryzae Esterase (carboxylesterase, SEQ ID NO:253) (protein, listed as Rhizopus oryzae)
chain: SDGGKVVAATTAQIQEFTKYAGIAATAYCRSVVPGNKWDCVQCQKWVPDGKIITTFTSLLSDTNGYVLRSDKQKTIYLVFRGTNSFRSAITDIVFNFSDYKPVKGAKVHAGFLSSYEQVVNDYFPVVQEQLTANPTYKVIVTGHSLGGAQALLAGMDLYQREPRLSPKNLSIFTVGGPRVGNPTFAYYVESTGIPFQRTAHKRDIVPHVPPQSFGFLHPGVESWIKSGTSNVQICTSEIETKDCSNSIVPFTSILDHLSYFDINEGSCL
modifications: Rhizopus cf. oryzae
For B2, the “Height as % of Control” value [2] was 103.7% and the “Height as % of Control” value ([2]; listed as Rhizopus oryzae Esterase) was “increase the growth rate of corn”.

B3: PpII Lipase: free lipase from porcine pancreas Type II (PpII) (protein, UniProt P00591 1-450, looked up)
Pancreatic triacylglycerol …: SEVCFPRLGCFSDDAPWAGIVQRPLKILPWSPKDVDTRFLLYTNQNQNNYQELVADPSTITNSNFRMDRKTRFIIHGFIDKGEEDWLSNICKNLFKVESVNCICVDWKGGSRTGYTQASQNIRIVGAEVAYFVEVLKSSLGYSPSNVHVIGHSLGSHAAGEAGRRTNGTIERITGLDPAEPCFQGTPELVRLDPSDAKFVDVIHTDAAPIIPNLGFGMSQTVGHLDFFPNGGKQMPGCQKNILSQIVDIDGIWEGTRDFVACNHLRSYKYYADSILNPDGFAGFPCDSYNVFTANKCFPCPSEGCPQMGHYADRFPGKTNGVSQVFYLNTGDASNFARWRYKVSVTLSGKKVTGHILVSLFGNEGNSRQYEIYKGTLQPDNTHSDEFDSDVEVGDLQKVKFIWYNNNVINPTLPRVGASKITVERNDGKVYDFCSQETVREEVLLTLNPC
With B3 the “Dead Larva” value ([3]; Table 46, lipases) was 0, the “Larva Stage I” value ([3]; Table 46) was 2 and the “Larva Stage II” value ([3]; Table 46) was 5. The “Larva Stage III” value ([3]; Table 46) was 15, the “Larva Stage IV” value ([3]; Table 46) was 10 and the Diet consumption ([4]; lipases, garden snail, n = 12, 12 days, dose per treatment in U/gr diet) was 0.82 gr. For the same molecule, the “Dead Snails” value ([4]; lipases, garden snail, number of n = 12, 12 days) was 0 and the “food consumption (in words)” value ([4]; text to Table 62, lipases in artificial diet, n = 12, 12 days) was “consistent reduction in food consumption”.

B4: Geobacillus stearothermophilus esterase (SEQ ID NO:252): Esterase (carboxylesterase) from Geobacillus/Bacillus stearothermophilus (protein, listed as Bacillus stearothermophilus, listed as Geobacillus stearothermophilus)
chain: MKIVPPKPFFFEAGERAVLLLHGFTGNSADVRMLGRFLESKGYTCHAPIYKGHGVPPEELVHTGPDDWWQDVMNGYEFLKNKGYEKIAVAGLSLGGVFSLKLGYTVPIEGIVTMCAPMYIKSEETMYEGVLEYAREYKKREGKSEEQIEQEMEKFKQTPMKTLKALQELIADVRDHLDLIYAPTFVVQARHDEMINPDSANIIYNEIESPVKQIKWYEQSGHVITLDQEKDQLHEDIYAFLESLDW
For B4, the “yield vs base seed treatment package (in words)” value [5] was “increased the yield”.

B5: Feruloyl Esterase (SEQ ID NO:91): Beauveria bassiana Feruloyl Esterase A2 (protein, listed as Beauveria bassiana)
chain: MLSLLGFLGFAALAAAAPVRDQAFIPRTLVNRSIYDKLALYAGYTQLSNTGICARPSVPGVLYQFVESKDTDTQVSIWKVDAYKEFVIAIPGTSSARDNETNFDFALVPYQADNVRCPSCRVHKGYQAAWRSVMKQVQGNLTNLLGIHPDYTVTLTGHSLGGGLVSIAFPTLRNGPYNVTQAYTYGQPRAGNGAFANYVDGISGASDKEAGIFYRVTHANDLIPKLPPGIFGYKHSRTEYWESKPSMDNAASTYRCYGQEPADCNRNATGIDSKVHVTYAGMNVTCNKS
modifications: Feruloyl Esterase A2
With B5 the “yield vs base seed treatment package (in words)” value [6] was “increased the yield”.
